Reference: patent publication US20050100919, “Nucleic acid-based detection” (Brandeis University, a Massachusetts corporation, published 2005)

What was measured:
thrombin [1] = target: T1, thrombin (UniProt P00734;P00734 P00734:328-363,P00734:364-622); experiment: fluorescence change at 100 nM thrombin in TE
thrombin [2] = target: T1, thrombin; experiment: fluorescence beacon titration, TE buffer, 24 C; estimated
thrombin [3] = target: T1, thrombin; experiment: competition; filter binding competition against radiolabeled G15D5d, TBB; displacement curve only in figure
thrombin [4] = target: T1, thrombin; experiment: half-maximum effect, fluorescence decrease, TBB (20 mM Tris-HCl, 140 mM NaCl, 5 mM KCl, 1 mM MgCl2, 1 mM CaCl2, pH 7.5)
thrombin [5] = target: T1, thrombin; experiment: fluorescence ratio at 100 nM thrombin in TBB; 0.7 in TE
thrombin [6] = target: T1, thrombin; experiment: fluorescence change at 100 nM thrombin in TBB; not saturated at 250 nM
factor IX = factor IX (UniProt P00740 P00740:47-461); experiment: specificity control; no effect on beacon fluorescence in TE; conditions: tags: purchased from Enzyme Research Lab; label: 5'-fluorescein, 3'-DABCYL; alternate 5-bp stem-loop / G4
Procedure: Thrombin binding assay using a fluorescence spectrometer: The aptamers were diluted to a concentration of 10 uM in TBB or TE (20 mM Tris-HCl, 1 mM EDTA, pH7.5) and heated at 99° for three min and cooled down to room temperature prior to the experiment. The experiment was performed using 5-40 nM of aptamer in 2 ml. All of the fluorescence intensity measurements were performed at 24° C. The excitation wavelength was 495 nm and the emission was monitored at its peak, 516 nm (in TE) or 518 nm (in TBB). A small volume (0.5-3 μl) of thrombin (final concentration of 0-250 nM) was added and the change of emission was monitored.
To confirm the binding specificity of G15D5dMB, we used factor IX, which is a plasma serine protease, as is thrombin, and shares a sequence identity of 37% in the catalytic domain with thrombin.

thrombin [7] = target: T1, thrombin; experiment: fluorescence beacon titration, TE buffer (20 mM Tris-HCl, 1 mM EDTA, pH 7.5), 24 C; estimated
thrombin [8] = target: T1, thrombin; experiment: competition; affinity increase relative to G15D5d, filter binding competition in TE

Chain of factor IX (P00740 47-461, one chain of several): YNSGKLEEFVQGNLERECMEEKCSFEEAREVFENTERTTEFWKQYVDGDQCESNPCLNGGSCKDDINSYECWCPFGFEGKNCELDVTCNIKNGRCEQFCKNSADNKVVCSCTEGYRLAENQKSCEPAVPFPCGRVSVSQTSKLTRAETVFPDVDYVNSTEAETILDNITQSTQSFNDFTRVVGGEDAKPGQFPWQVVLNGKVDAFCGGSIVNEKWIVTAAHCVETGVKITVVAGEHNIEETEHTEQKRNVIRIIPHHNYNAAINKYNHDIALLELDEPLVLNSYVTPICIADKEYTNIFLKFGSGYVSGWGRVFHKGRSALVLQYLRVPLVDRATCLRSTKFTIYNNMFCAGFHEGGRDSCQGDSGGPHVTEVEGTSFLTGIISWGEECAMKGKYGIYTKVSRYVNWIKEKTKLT

B1: G15D6dMB (ssDNA)
DNA: CCAACCGGTTGGTGTGGTTGG
activity (thrombin [1]): 1.7 fold
Kd (thrombin [2]): 12 nM

B2: G15D (ssDNA)
DNA: GGTTGGTGTGGTTGG
binding result (thrombin [3]): binds

B3: G15D5ndMB (ssDNA)
DNA: TTTTTGGTTGGTGTGGTTGG
EC50 (thrombin [4]): ~80 nM
activity (thrombin [5]): 0.5 fold

B4: G15D4dMB (ssDNA)
DNA: CCAAGGTTGGTGTGGTTGG
activity (thrombin [6]): 1.5 fold

B5: G15D5dMB (ssDNA)
DNA: CCAACGGTTGGTGTGGTTGG
binding result (factor IX): no binding
Kd (thrombin [7]): 3 nM
binding signal (thrombin [8]): ~6 fold
activity (thrombin [1]): 2.3 fold
